The text below walks through data of US6696409.

For assay [1], the target named is Y1 receptors in anaesthetised rats (rat). Put plainly: cell-based or functional assay.
For assay [2], the target named is Y2-like receptors in anaesthetised rats (rat). Put plainly: cell-based or functional assay.

“Ac[L28,I30]NPY24-36 (from UniProt P01303 52-64) (peptide)” registered an Increase in BP (rel to NPY), anaesthetised rats (relative to NPY) in assay [1] of 0. Also, in assay [2], the EC50 of the change in pulse interval (PI %), vagal stimulation in anaesthetised rats came out at 1.26 nmol.
